Source: patent publication US20130005646A1 (Novo Nordisk, published 2013)
Starred links: 1 amine or outer side, 2 acyl side, 3 side chain; linkers in the order of their positions; H or OH if unused. Positions of bridges follow the written chain, without caps; N, C: chain ends. *: point of attachment. C20 diacid = O=C(O)CCCCCCCCCCCCCCCCCCC(=O)*; 19‑carboxyheptadecanoyl = not defined here; γGlu = O=C(O)[C@H](CCC(=O)[*:2])N[*:1]; AEEA = NCCOCCOCC(=O)O

T1: human amylin 3(a) receptor (human calcitonin receptor + RAMP-3) (human, UniProt P30988 25-474; O60896 24-148)
T1 sequence (looked up) 1: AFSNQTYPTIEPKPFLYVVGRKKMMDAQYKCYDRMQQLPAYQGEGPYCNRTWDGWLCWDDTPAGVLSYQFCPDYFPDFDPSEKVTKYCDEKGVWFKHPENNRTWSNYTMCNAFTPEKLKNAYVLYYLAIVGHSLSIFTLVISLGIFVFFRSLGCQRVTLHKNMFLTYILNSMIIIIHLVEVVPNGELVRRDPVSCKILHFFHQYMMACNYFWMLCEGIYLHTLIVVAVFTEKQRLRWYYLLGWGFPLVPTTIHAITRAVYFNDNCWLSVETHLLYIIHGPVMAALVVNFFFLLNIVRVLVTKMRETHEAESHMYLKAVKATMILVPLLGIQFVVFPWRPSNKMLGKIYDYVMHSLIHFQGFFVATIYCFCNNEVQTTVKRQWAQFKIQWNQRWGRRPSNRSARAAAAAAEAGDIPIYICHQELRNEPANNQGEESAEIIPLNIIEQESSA
T1 sequence (looked up) 2: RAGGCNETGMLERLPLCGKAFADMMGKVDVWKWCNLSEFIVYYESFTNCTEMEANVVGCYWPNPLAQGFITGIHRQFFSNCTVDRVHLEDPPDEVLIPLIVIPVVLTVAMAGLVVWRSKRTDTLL

T2: human calcitonin (a) receptor (human, UniProt P30988 25-474)
T2 sequence (looked up): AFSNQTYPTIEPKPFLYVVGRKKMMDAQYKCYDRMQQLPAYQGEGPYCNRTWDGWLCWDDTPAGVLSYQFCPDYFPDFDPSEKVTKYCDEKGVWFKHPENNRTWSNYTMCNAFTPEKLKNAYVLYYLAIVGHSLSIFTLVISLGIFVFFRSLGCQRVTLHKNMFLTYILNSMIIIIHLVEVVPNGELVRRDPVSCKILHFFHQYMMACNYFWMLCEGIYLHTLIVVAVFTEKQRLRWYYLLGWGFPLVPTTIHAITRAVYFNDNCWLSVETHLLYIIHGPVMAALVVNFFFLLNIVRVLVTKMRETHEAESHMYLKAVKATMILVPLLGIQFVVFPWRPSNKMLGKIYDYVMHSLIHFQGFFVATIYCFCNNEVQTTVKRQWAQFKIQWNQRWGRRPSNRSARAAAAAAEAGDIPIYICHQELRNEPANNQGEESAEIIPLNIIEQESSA

B1: N-alpha-[2-(2-{2-[2-(2-{2-[(S)-4-Carboxy-4-(19-carboxyheptadecanoylamino)butyrylamino]ethoxy}ethoxy)acetylamino]ethoxy}ethoxy)acetyl]-[His1,Glu14,His17,Arg18,Al … (peptide)
peptide: {19‑carboxyheptadecanoyl-γGlu-AEEA-AEEA}-HCNTATCATQRLAEFLHRATQELGPILPPTNVGSNTY-NH2
modifications: disulfide 2-7; reading uncertain; also: printed as N-alpha-[2-(2-{2-[2-(2-{2-[(S)-4-Carboxy-4-(19-carboxyheptadecanoylamino)butyrylamino]ethoxy}ethoxy)acetylamino]ethoxy}ethoxy)acetyl]-[His1,Glu14,His17,Arg18,Ala19,Thr20,Gln21,Glu22,Leu23]-pramlintide
B2: N-alpha-[(S)-4-Carboxy-4-(19-carboxynonadecanoylamino)butyryl]-[His1,Gly3,Glu14,His17,Arg18,Ser21,Ser22,Glu31,Glu35]-pramlintide (peptide)
peptide: {C20 diacid-γGlu}-HCGTATCATQRLAEFLHRSSSSFGPILPPTEVGSETY-NH2
modifications: disulfide 2-7
SMILES: CC[C@H](C)[C@H](NC(=O)[C@@H]1CCCN1C(=O)CNC(=O)[C@H](Cc1ccccc1)NC(=O)[C@H](CO)NC(=O)[C@H](CO)NC(=O)[C@H](CO)NC(=O)[C@H](CO)NC(=O)[C@H](CCCNC(=N)N)NC(=O)[C@H](Cc1c[nH]cn1)NC(=O)[C@H](CC(C)C)NC(=O)[C@H](Cc1ccccc1)NC(=O)[C@H](CCC(=O)O)NC(=O)[C@H](C)NC(=O)[C@H](CC(C)C)NC(=O)[C@H](CCCNC(=N)N)NC(=O)[C@H](CCC(N)=O)NC(=O)[C@@H](NC(=O)[C@H](C)NC(=O)[C@@H]1CSSC[C@H](NC(=O)[C@H](Cc2c[nH]cn2)NC(=O)CC[C@H](NC(=O)CCCCCCCCCCCCCCCCCCC(=O)O)C(=O)O)C(=O)NCC(=O)N[C@@H]([C@@H](C)O)C(=O)N[C@@H](C)C(=O)N[C@@H]([C@@H](C)O)C(=O)N1)[C@@H](C)O)C(=O)N[C@@H](CC(C)C)C(=O)N1CCC[C@H]1C(=O)N1CCC[C@H]1C(=O)N[C@H](C(=O)N[C@@H](CCC(=O)O)C(=O)N[C@H](C(=O)NCC(=O)N[C@@H](CO)C(=O)N[C@@H](CCC(=O)O)C(=O)N[C@H](C(=O)N[C@@H](Cc1ccc(O)cc1)C(N)=O)[C@@H](C)O)C(C)C)[C@@H](C)O
B3: N-alpha-[(S)-4-Carboxy-4-(19-carboxynonadecanoylamino)butyryl]-His-His-[His1,Glu14]-pramlintide (peptide)
peptide: {C20 diacid-γGlu}-HHHCNTATCATQRLAEFLVHSSNNFGPILPPTNVGSNTY-NH2
modifications: disulfide 4-9
SMILES: CC[C@H](C)[C@H](NC(=O)[C@@H]1CCCN1C(=O)CNC(=O)[C@H](Cc1ccccc1)NC(=O)[C@H](CC(N)=O)NC(=O)[C@H](CC(N)=O)NC(=O)[C@H](CO)NC(=O)[C@H](CO)NC(=O)[C@H](Cc1c[nH]cn1)NC(=O)[C@@H](NC(=O)[C@H](CC(C)C)NC(=O)[C@H](Cc1ccccc1)NC(=O)[C@H](CCC(=O)O)NC(=O)[C@H](C)NC(=O)[C@H](CC(C)C)NC(=O)[C@H](CCCNC(=N)N)NC(=O)[C@H](CCC(N)=O)NC(=O)[C@@H](NC(=O)[C@H](C)NC(=O)[C@@H]1CSSC[C@H](NC(=O)[C@H](Cc2c[nH]cn2)NC(=O)[C@H](Cc2c[nH]cn2)NC(=O)[C@H](Cc2c[nH]cn2)NC(=O)CC[C@H](NC(=O)CCCCCCCCCCCCCCCCCCC(=O)O)C(=O)O)C(=O)N[C@@H](CC(N)=O)C(=O)N[C@@H]([C@@H](C)O)C(=O)N[C@@H](C)C(=O)N[C@@H]([C@@H](C)O)C(=O)N1)[C@@H](C)O)C(C)C)C(=O)N[C@@H](CC(C)C)C(=O)N1CCC[C@H]1C(=O)N1CCC[C@H]1C(=O)N[C@H](C(=O)N[C@@H](CC(N)=O)C(=O)N[C@H](C(=O)NCC(=O)N[C@@H](CO)C(=O)N[C@@H](CC(N)=O)C(=O)N[C@H](C(=O)N[C@@H](Cc1ccc(O)cc1)C(N)=O)[C@@H](C)O)C(C)C)[C@@H](C)O

Assays:
[1] = molecular target: T1, human amylin 3(a) receptor (human …); test: cell-based or functional assay
[2] = molecular target: T2, human calcitonin (a) receptor; test: cell-based or functional assay

| Binder | Amylin receptor human EC50 [1] [pM] | CTa receptor human EC50 [2] [pM] |
| --- | --- | --- |
| B1 | 385 | 492 |
| B2 | 313 | 198 |
| B3 | 151 | 740 |
